From US20130212721
Numbering of substitutions follows the chain as printed.

How the values were obtained:
[1] = system: T1, human FEAT D274A/D288A mutant
T1 sequence: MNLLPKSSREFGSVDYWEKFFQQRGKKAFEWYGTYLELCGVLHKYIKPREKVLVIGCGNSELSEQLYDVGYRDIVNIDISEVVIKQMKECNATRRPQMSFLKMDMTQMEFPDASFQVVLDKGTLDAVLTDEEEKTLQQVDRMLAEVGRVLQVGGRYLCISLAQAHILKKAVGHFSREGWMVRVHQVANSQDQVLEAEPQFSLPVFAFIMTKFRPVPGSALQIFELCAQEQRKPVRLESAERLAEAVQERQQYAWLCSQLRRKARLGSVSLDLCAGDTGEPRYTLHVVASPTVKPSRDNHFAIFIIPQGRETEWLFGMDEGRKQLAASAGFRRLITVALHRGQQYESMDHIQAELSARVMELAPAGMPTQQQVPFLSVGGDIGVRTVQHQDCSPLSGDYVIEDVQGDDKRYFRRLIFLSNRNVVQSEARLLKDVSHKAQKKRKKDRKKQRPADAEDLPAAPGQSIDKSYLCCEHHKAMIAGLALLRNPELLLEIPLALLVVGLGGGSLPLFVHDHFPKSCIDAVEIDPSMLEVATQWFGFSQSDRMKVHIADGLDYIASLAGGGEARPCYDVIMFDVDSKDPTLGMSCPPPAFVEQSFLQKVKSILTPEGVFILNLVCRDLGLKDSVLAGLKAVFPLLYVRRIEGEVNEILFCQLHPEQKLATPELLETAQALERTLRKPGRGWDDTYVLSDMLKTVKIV

[2] = system: T2, human FEAT protein (faint expression in normal tissues, aberrant overexpression in tumors)
T2 sequence: T1 sequence with A274D, A288D

| Substance | caspase-3 cleavage of FEAT with Asp-to-Ala mutations in the cleavage sites [1] | cleavage of in vitro transcribed/translated [35S]-FEAT (SDS-PAGE, autoradiography) [2] |
| --- | --- | --- |
| His-tagged recombinant caspase-3 | are resistant to caspase-3 cleavage | FEAT transcribed/translated in vitro was cleaved by caspase-3, but not by caspase-6 |
| His-tagged recombinant caspase-6 |  | FEAT transcribed/translated in vitro was cleaved by caspase-3, but not by caspase-6 |
